Laboratory results as given in the domain aggregation screens of Martell et al. (2025).

Test: soluble fraction after stress (log2 fold change); higher = more stays soluble; pooled small domains, quantitative proteomics
Conditions: stress: 50 degC
How it was run: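 Custom libraries of small protein domains were pooled and measured in a high-throughput format, with quantitative proteomics as the read-out. Each library was stressed at 50°C. The value is the log2 fold change in the amount of each protein that stays soluble after stress, used as a measure of aggregation propensity; higher values mean more of the protein stays soluble.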

| Sequence | soluble fraction (log2) |
| --- | --- |
| HMSTTILSFQNRVVIETLHNEGRSLRYIANYLGFSKATIFNELHRLNSEYRAELAQADFERKVSQR | -3.59 |
| HMQPSFFEMIRMVESYIKQHFENVGNEFPEIARAIYYGIEEERNIYGTASREDMEELLDEGIPILPVP | -0.926 |
| HMEEKTMNLPPSAKLVYKILSYEGNLTQKEIINMTYLPERTVRHALELLLGKRLITRQAYLNDARQSVYG | -1.66 |
| HMVPLSMLTEGQIFRGQVLDITSQGIKIQLNPEQILFARLGEQVELNIGQQMAFQVRENKGDQLIIHPMQN | 0.0382 |
| HMFADLNPDENYGQVYIRTNTIDNLYQTLLDNKTRIHPNGLLELKPWGQKEFSILDPDKNLLTFGES | 0.0797 |
| HMAFKEQLKAARLAKGYTQEQLATAIGVAKSTFTGYEKGNSEPNMLTIKKLMEILEVDANYLWY | -2.49 |
| HMGTAGLSPWHKIAVLMIALGPEGASELMRHFGEDEVEQVVQAIADLKNVPSELQDAVLLEMEGALQEG | -0.00851 |
| HMSEQYEQIQLALKTLTQDEQDIVRLVVVEGASLRTAGKNLGVSAMTIQRRLKRALARLRDLLAS | -0.948 |
| HMSVKSVSLRKISYKVRRGDSLYNIAKNFSLSINDITHWNSINKKSYLQPGQRLTLYINPRN | -1.71 |
| HMKTPAPRETILSLFRQTPDGFVSGERISDELGVSRTAVWKHIRNLRQAGYQIEAIPSRGYQLQQS | -0.359 |
| HMDKGQRGWINLVSVPTARVIIDGYDTGHETPLYGYEVERGKRKVTLISLDGTYERTYEIRIEPGTTTRVR | -0.775 |
| HMSSAMDMISRDVRNADSISISTTTYSKKIDLYNFDRNGDIEELHSYSAKNDLGILYNDEPI | -0.276 |
| HMNPTTDFFKLEGIDATRILVFDQVGRQVAQFSQPAQQMDIQALPAGVYALRIENADGQVYSARIVK | -0.16 |
| HMSNEDAYIKLRNGFLATLSEADLLLFTLREEGKTQKEIADQLGYKTHSAVSKRLQTMRGQFEGYLKTQ | -0.68 |
| HMIGMDMQELIGRYKGDPDEMGKIELAAMSMLKLSEDMSSDHVLQKSKLRQDGLWLLKYVQE | -0.551 |
| HMGVLGVDALAAAAEVSVDTVRYYQHLGLLEPPRREGRRAVYGPSHLARMGEIRRLAAAGFTLDQIRQLAE | -2.1 |
| HMDDATIKVNIAAKFLNAGNNLFVDIDTTVLEGRVLLTGLVDTQEVRIDAVRLVWEVEGIREVINEIEIG | -4.89 |
| HMSAEVEVPDVVGRQVALAVQLIETKKLRVNVAETYDAKVPPGQVISQSPEAGMKVKEERVITIYVSR | -0.167 |
| HMENPLVEVVVPVLNEERILKANIETLHHFLRTQPGFNFRITIADNGSTDKTQAIANDLTNSHAVIRV | -0.12 |
| HMIRVGRPQYKRGEFVSFDFDNGRKKTEMYGRVDVIDSYGTFGQGREVSYDIRASDGILYKHIPESSVYGF | -1.5 |
| HMENFDNIFDQRLMPSLFIIRNINQAIENNNNNKFLLNSTISMKDKHWIEIHPHHLKLIISGYQT | -0.238 |
| HMALPASLSPREREIVSLISQGKTNSEIASLLYISVPTVKTHISNIFQKTGVSNRTSLLNRLRMS | -0.164 |
| HMTKTRTEILEYLKQNWSVTVSASDIKKHLEEKEIKANTTTIYRYLDKLLAEHVIIKYADAGSERAVYQYS | -2.31 |
| HMVLGDQTFQSASAPKVFFGGDAAYGPKNIITAVAHGHDAAVSIDRFLHGEDVSKRPGPQVNLVS | 0.144 |
| HMSKYERVYTGSEINVNHLKSQLEDAGISSVVRNDHESAIRAGFGSDYDRGVLLFVEKDNLLRAKHIIEKT | 0.0318 |

| Sequence | soluble fraction (log2) |
| --- | --- |
| HMELNEMEAWSLVSKALRNGTYGAVEEFSRLPPTVQEAVGNPDNLRNWATSDYKAIETVIQSNFIKTY | -0.12 |
| HMLRISEEVWALVEKTLREDWSPEQVSGKLKASGISVSHERIYQHIYADKRVGGTLWTHLRR | -2.3 |
| HMLSRKEVFTVSQKDIEKNPIGAADKFFDGHVGIHKLLVVDEEDRLRGLFTLSDIERINDEQ | 0.0269 |
| HMSRSLLAALEKLRESHTGSLPASVLSSAQRRSLESFAQTTKSVQMRPSGRGVVFAIINPEVVDKHWRELS | -0.497 |
| HMYHKKEKAQAANIEERIMILLSDGKHHHITEIKAIYVDEVITLNILEEMLAEEKVIIEGDMIMLVE | -3 |
| HMKAERLLALLTILLSGKRVSARWLSEELEVSERTVYRDVEALSEAGFPVYATTGRDGGFSLIDGF | -2.08 |
| HMDVLKMKVEDLNIGSRTVNSLTAAKIKTVAGLIKKSKESLLELDGMGNKGVEEIILALKKLGLEL | 0.0186 |
| HMDGVSAEAVKSHIKTLIDGEGAKILSDDTLVDLLNAKGFDIARRTVAKYREAMGIGSSVQRRRQKKMG | 0.178 |
| HMGQLIVTIPNFERRPAEQAIQKLEELGLVPEEKQIYHDDIPAGSVIYTDPSKDSQVNAGTKVYVYVSLG | -0.116 |
| HMVDIVLDILKIVAEKQPGNQFSQSILMQYQERGGLSKKQLEGLYGKAKRIPEIPQNKLATLEAIILR | -1.41 |
| HMSPIPLPVERAIHKLGSDISLARRRRHISQASLAERMGASLSTVRRMEKGDVRVPIHFFARALHVFG | -0.00115 |
| HMFQPEQISKLNELETLVLDFIIKSPDKVQKATIRSLATQLHVSTTTIVRMSTKLGFNGWSELKFFLKNQS | -2.15 |
| HMRQPAAVEYSTFLDWVHASQVERVVFEGDTIRGVRVTGEGFVTYSPETDNTALIGELKKSRVQISATAP | -0.153 |
| HMPKHFIDFSEGEVVSITDGPFKGFDGAISEIDNQKGKVKVMVSMFGRDTSVELDALQVKKV | -0.107 |
| HMGQHSAELKLHPQDLGQVTISMKVEDNQAQLQMVSGHGHVRAALEAALPQLRSQLADSGIQLTQSSIS | -0.146 |
| HMAMYSREKLKKLREDRGLTQYELAKIAGISVVTLNKIESSDSAKPFVKTLNKIAQALGVGIDELS | -0.127 |
| HMTSLTDDELSVVMLVREREISFDEITSETGFDAARLNSVLTMLKIKGIIDETTGKHYRISGGA | 0.146 |
| HMGPEVQLAYSEFLAKVKVGEVNDVMVKGNEIHGHFSDGRTFSTYSPNDPDLVEKLNKNKVMIKAAPP | 0.0475 |
| HMSAGISVADVTNRTYDEGYNTLTAQHLLVNKVYEANETIPLDTIIRTDPVAGTKVPDNTSITVYVSSGK | 0.000832 |
| HMFNKTKVPNFIDMNYYEEIEGNSEYDKFNFADPITKNDDTKAPGTVIDQTPEKGTRIDEEKTVIQLTIA | -0.102 |
| HMGTHPGIDSGIISDILALKKELPTRSAAKIITMLTLAGKMEENSIHVKTVNRILYQYGYTRDTLS | -1.88 |
| HMQEAGKWLKKLRTERKITLEQLSKKTGLSVGFLSQFERGLTSIAIDTLEKIAAVFNVTIDYFISP | 0.0423 |
| HMKMQIGEIIRKYRKSNHMTQEEMAERLGVSAPAVNKWENGNSMPDIMLLAPITRLLGISLDELLSFE | -1.24 |
| HMQKTPFEIMTIYKDQILEMLGKDLTATEISIVLKKKGEKVHPREIRKFQLQHYEEVQDMRKKWRE | -1.16 |
| HMSIGLEDLIEQKGVADTDLRPSGWINVGNQRIFVVTEGSYIDQNDNVIILSVDGNRVVVRKI | -0.747 |

| Sequence | soluble fraction (log2) |
| --- | --- |
| HMEQVTMSNFLDKWGTSTKSPNAWYTSLSPMQKAEAKLLKEESGLTWNKWYEKNIYVGDGTN | 0.249 |
| HMSLQEISDLISQAERADQEQLKEVLKQLHQVESGNQPMSKGFLSSALSTLNKYPALITSIGQLLFKLAT | 0.00954 |
| HMFSAASSQISSYVRSVVDKAQTYEQAYEILAKNPLGFKLDALEDELFRIIANAEILGADDDE | -0.887 |
| HMAAAKDVMDWQNAIRGLTDAKGKPYSPTYLKTVHNQLSALFNHAVRYYGLQVNPAAKAGNMGVEE | -0.0939 |
| HMRFTVSDKMDMLLKSLSAGQSMPFKSLFASASTKSEVIVTFLALLELMKLNQFVVWQDQILGEIEIERR | -0.554 |
| HMKKILIVTNRSAGMVVYTIPEEGIRREFTPGETKKIPFEELEKLAYLSGGRTLMENFLKIVDTETTEELG | -0.543 |
| HMTEFWTGPITTVTKANFADWTLDTNQDRITANVWLTRADSKGLFNITPGKETAFDIVDYLSPLDTEWA | -0.188 |
| HMKNSAAKETILAFLKKNGGELFTQMQIIEKFQKMIPAPVLRITLEELLNKGQVEITSKGKYYLSVKGS | -0.587 |
| HMTLALKQGSTGSTVKQVQQKLKNWGYYSGAVDGIFGSGTRKAVVLFQKRNKLTADGIVGSKTLEALGIYV | -1.05 |
| HMNPEDLSGVRKAAILLLTMDDEVTKDVMKGLDEEEIEAIGKEITNLKLIPDHVVHRVQEEFMTKVSK | 0.0913 |
| HMASRKTERINRLIDVLQHATSRVPASVLSKILGIGERSVRNYVSEVNEQGQFRIDSSSGGYRLVA | -0.147 |
| HMDTVEFPVQVNGKVRGKITVAADAGKDAIETAALADEKVLAFLDGATPKKVIVVPGKLVNLVVQPG | 0.435 |
| HMAKQEPTDNGYDIYKVTASVLNVRNGAGTSYAVAYQLSKEDYVEVVSIDKGWAKLKDGKYVSADWITLYK | -0.54 |
| HMKSVLDDVAGLGPVRKKALLKAMGGFTRLRAASLDDILAVRAVPEEVAREVFAVLAQYNSVRNNDISE | -0.273 |
| HMQNSLKAFRVKRGLTTSALSRLTNGEFSTSRISNYETGVRALTIDAAKKLAPHLGASPAQLLNL | -0.357 |
| HMQMMDATLKIPPSMGKLRGTLYELNSVTSEDVDENGQLALHVRLSSVDWQRLKKRFDSNLDELIVQKN | -0.0668 |
| HMGEAYVVPNVKNKTLGEAQLALHNQKLEGLVVDSSYVKGLPDGMILDQNPAGGARVKEGRTIYLTITTS | 0.00953 |
| HMRSLAVGNVVSEEGKPSYLLLDSKRTMLFSENSIPSLYLEDGRRVIVNYTLLDEDYQGYDFRIHVNDIDT | -0.113 |
| HMLLSYDIAEYIEKYIHEHGLQPGDRLPTERELAAQLDITRVSVRQGYKRLLDQGVIRSENGYYVNPPR | -1.34 |
| HMGKGGVAYLLESEFGIELPKDMQREFGPIANDIVDSLGREVSGAELKSMFWKEYIERETPFLLLLVTGQL | 0.457 |
| HMDFYIVLGVDRAASVSDVKRAYRRLARKYHPDINPGDREAEAFFLRVTEAYETLIDPDRRQDYDVNG | -0.94 |
| HMAIDVQELARTRLRSLRTTLGYSLDELAARTHLSPSTISRLETGKRSLSLDVVVPLAQALHVSLDVLFEA | -2.68 |
| HMSKKAIVINLLKRPDGASLKDIMQATYWQAHSVRGFISGSLTKKMGLNVESFKRPDGERAYRIN | -2.3 |
| HMTKLTPLEVNLYAKKLANDPEFGSKHIEPGESFSQAEERLRVQLSQQEYVQKYSKYLKKLKASA | 0.0851 |
| HMIDIDTILKKYKPGRRDELIPLMQEIQEVYGHLSEEAVVKIGTYVGLSTTKIYGLATFYDQFRF | -1.24 |
